Laboratory results published in patent publication US20230167458A1, “FORSKOLIN-INDUCIBLE PROMOTERS AND HYPOXIA-INDUCIBLE PROMOTERS” (ASKLEPIOS BIOPHARMACEUTICAL, INC., priority 2020, published 2023).

Tests used:
[1] = test system: HEK293-F; assay: Luciferase time course after forskolin induction, transient transfection of suspension HEK293-F; type: cell-based, human; settings: 20 µM forskolin
Protocol: The tested promoters were synthesised directly upstream of the ATG of PM-RQ plasmid and the suspension cell lines were transiently transfected with the PM-RQ plasmid.
40 ml of cells were grown in a 250 ml vented Erlenmeyer flask (Sigma-Aldrich CLS431144) at 37° C., 20% O2, 8% CO2 with agitation at 100 rpm. Cells were seeded as described in the manufacturer's instructions (300,000 cells/ml). HEK293-F were obtained from Thermofisher, R79007.
One day before transfection, the cells were counted using a haemocytometer and split to 500,000 cells/ml.
On the day of transfection, the cells are seeded to 1,000,000 cells/ml in 500 μl of appropriate medium (Freestyle 293 expression medium, 12338002) in a 24 well plate. […] of DNA per well was then added to 10 μl of OptiMem medium (Thermofisher; 11058021) and incubated for 5 minutes at room temperature.
Concurrently, 0.625 μl of Max reagent (Thermofisher, 16447100) was made up to 10 μl by addition of OptiMem and incubated for 5 minutes at room temperature. After this incubation, both mixes were added to the same tube and incubated at room temperature for 25-30 minutes. […]
24 hours after transfection, the promoters were induced by addition of […] forskolin and luciferase activity was measured 0, 3, 5 and 24 hours after induction. Luciferase activity was measured as previously described.

[2] = test system: CHO-GS-KSV1 cell line; assay: SEAP expression in stably transfected CHO-GS-KSV1, forskolin or NKH477 induction; type: cell-based, chinese hamster; settings: stable CHO-GS-KSV1, SEAP, forskolin or NKH477
Protocol: The forskolin-inducible promoters were then tested in a stably transfected CHO-GS-KSV1 cell line.
• CD-CHO media (Life technologies, CAT #10743029) • Corning 125 mL Polycarbonate Erlenmeyer Flask with Vent Cap (CAT #734-1885). • Gene Pulser® Electroporation Cuvettes, 0.4 cm gap (BioRad, CAT #165-2088) • Gene Pulser Xcell Total System (BioRad, CAT, #1652660) • GS-vector DNA ([…] in 100 μL TE buffer) linearised with Sca1 • Suspension cultures of CHOK1SV GS-KO host cells.
Cell suspensions of 6×10^5 cells per mL were incubated on an orbital shaker set at 8% CO2, 20% O2, 37° C., 85% relative humidity and 140 rpm overnight. 2.86×10^7 cells were centrifuged at 200 g for 3 minutes. Media was then aspirated and cell pellet resuspended in 2 mL fresh CD-CHO media to obtain a concentration of 1.43×10^7 cells per mL. 700 μL of cell suspension was added to each of two electroporation cuvettes each containing […] of linearised DNA in 100 μL of sterile TE buffer (Thermofisher, 12090015). Each cuvette was electroporated, delivering a single pulse of 300V, […] with resistance to infinity. Immediately after delivery of pulse electroplated cells were transferred to Erlenmeyer 125 mL flask containing 20 mL of CD-CHO media pre-warmed to 37° C. Electroporated cells from two cuvettes are combined into a single 125 mL flask to generate one pool of cells. Cells are cultured on an orbital shaker set at 8% CO2, 20% O2, 37° C., 85% relative humidity and 140 rpm. Cells are transferred to fresh CD-CHO media 24 hours after transfection and cell cultures monitored and given fresh CD-CHO media every 2-4 days. Usually after about 10-14 days cell numbers will be high enough to start passaging.
The transfected DNA was the pXC-17.4 expression vector (Lonza Biologics plc) where one of the promoter constructs (or a control promoter (CMV-IE) have been cloned upstream of the secreted alkaline phosphatase (SEAP) gene, which had been cloned into the multiple cloning site within the vector expression cassette. Promoters were closed into the pXC-17.4 vector using Gibson assembly. The pXC-17.4 expression vector is designed for making stable cell lines in the CHO-GSK1SV cell line as it contains the […] gene which has been knocked out of the cell line. Therefore, selection of cells in glutamine drop-out medium will select for cells that have stably integrated the plasmid.
The responsiveness of the RTV-019 promoter to different concentrations of forskolin and […] was tested in the stably transfected CHO-GS-KSV1 cell line. To this end, the stably transfected CHO-GS cells were seeded at 500,000 cells/ml and allowed to grow for 24 hrs. At this point the cells were induced by addition of the respective concentrations of forskolin and NKH477 and SEAP expression was measured as described below after 24 hours.
The promoter activity and inducibility of FMP-02, FORCYB-001, RTV-017, FORCSV-10, FOR-CMC-009, FLP-01 and RTV-019 were also tested in the stably transfected CHO-GS-KSV1 cell line. To this end, the stably transfected CHO-GS cells were seeded at 500,000 cells/ml and allowed to grow for 24 hrs. At this point the cells were exposed to […] forskolin or […] NKH477 for 24 hours. After this point, the SEAP activity in the medium was assessed as described below.
SEAP Reporter Gene Assay, chemiluminescent (Roche, CAT #11 779 842 001) was used to measure SEAP activity as per the manufacturer's protocol. All reagents and samples were fully pre-equilibrated at room temperature. Culture supernatant was collected from the stably transfected CHO-GS at the specific time points (0 h and 24 h). The supernatant was diluted 1:4 in dilution buffer and heat treated at 65° C. for 30 minutes. The heat-treated sample was then centrifuged for 30 s at maximum speed. 50 μl of the heat-treated sample was then added to 5 μl of inactivation buffer and incubated for 5 min at room temperature. 50 μl of substrate reagent was then added and incubated for 10 min at room temperature. […]

B1: FMP-02: synthetic forskolin-inducible promoter, SEQ ID NO: 41; 8× AP1(1) TFBS and MinTK minimal promoter (nucleic acid)
DNA: TGAGTCAGATGATGCGTAGCTAGTAGTTGAGTCAGATGATGCGTAGCTAGTAGTTGAGTCAGATGATGCGTAGCTAGTAGTTGAGTCAGATGATGCGTAGCTAGTAGTTGAGTCAGATGATGCGTAGCTAGTAGTTGAGTCAGATGATGCGTAGCTAGTAGTTGAGTCAGATGATGCGTAGCTAGTAGTTGAGTCAGTAGTCGTATGCTGATGCGCAGTTAGCGTAGCTGAGGTACCGTCGACGATATCGGATCCTTCGCATATTAAGGTGACGCGTGTGGCCTCGAACACCGAGCGACCCTGCAGCGACCCGCTTAA
modifications: Synp-FMP-02
notes: 8× AP1(1) TFBS and MinTK minimal promoter
relative rank of promoter (fold induction/strength) [1]: weakest
relative rank of promoter strength [2]: weakest
